Changes are numbered by the printed parent chain.
T1: Nsp2-SmuCas9 (synthetic)
T1 chain: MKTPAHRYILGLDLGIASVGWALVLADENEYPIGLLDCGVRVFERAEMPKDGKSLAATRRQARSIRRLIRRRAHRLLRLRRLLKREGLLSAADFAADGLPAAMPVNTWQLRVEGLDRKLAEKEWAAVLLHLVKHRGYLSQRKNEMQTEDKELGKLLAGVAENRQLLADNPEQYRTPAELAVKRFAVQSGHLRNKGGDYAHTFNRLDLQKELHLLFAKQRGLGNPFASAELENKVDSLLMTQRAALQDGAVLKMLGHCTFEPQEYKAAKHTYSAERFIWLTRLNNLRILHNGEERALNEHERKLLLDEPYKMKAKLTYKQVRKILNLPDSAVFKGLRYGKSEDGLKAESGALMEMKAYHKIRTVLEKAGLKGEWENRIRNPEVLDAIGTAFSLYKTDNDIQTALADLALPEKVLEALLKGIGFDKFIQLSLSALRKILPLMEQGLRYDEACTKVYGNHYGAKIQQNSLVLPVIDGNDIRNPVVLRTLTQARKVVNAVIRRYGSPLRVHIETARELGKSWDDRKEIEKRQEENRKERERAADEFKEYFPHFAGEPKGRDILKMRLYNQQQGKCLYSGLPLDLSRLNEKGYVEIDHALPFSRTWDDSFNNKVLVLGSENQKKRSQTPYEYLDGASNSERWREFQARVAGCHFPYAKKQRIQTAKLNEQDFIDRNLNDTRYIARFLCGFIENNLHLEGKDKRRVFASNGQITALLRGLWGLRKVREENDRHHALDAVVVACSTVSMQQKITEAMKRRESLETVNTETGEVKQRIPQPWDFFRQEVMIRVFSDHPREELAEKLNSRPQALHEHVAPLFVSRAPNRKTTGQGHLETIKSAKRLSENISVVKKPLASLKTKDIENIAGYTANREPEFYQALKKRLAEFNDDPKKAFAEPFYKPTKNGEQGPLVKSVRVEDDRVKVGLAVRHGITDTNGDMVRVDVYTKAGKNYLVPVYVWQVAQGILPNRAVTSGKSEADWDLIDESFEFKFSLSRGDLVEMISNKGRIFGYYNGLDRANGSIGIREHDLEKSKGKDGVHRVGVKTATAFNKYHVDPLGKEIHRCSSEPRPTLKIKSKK

T2: Nsp2Cas9 (Neisseria sp. WF04, UniProt A0A4Y9GBC9)
T2 sequence: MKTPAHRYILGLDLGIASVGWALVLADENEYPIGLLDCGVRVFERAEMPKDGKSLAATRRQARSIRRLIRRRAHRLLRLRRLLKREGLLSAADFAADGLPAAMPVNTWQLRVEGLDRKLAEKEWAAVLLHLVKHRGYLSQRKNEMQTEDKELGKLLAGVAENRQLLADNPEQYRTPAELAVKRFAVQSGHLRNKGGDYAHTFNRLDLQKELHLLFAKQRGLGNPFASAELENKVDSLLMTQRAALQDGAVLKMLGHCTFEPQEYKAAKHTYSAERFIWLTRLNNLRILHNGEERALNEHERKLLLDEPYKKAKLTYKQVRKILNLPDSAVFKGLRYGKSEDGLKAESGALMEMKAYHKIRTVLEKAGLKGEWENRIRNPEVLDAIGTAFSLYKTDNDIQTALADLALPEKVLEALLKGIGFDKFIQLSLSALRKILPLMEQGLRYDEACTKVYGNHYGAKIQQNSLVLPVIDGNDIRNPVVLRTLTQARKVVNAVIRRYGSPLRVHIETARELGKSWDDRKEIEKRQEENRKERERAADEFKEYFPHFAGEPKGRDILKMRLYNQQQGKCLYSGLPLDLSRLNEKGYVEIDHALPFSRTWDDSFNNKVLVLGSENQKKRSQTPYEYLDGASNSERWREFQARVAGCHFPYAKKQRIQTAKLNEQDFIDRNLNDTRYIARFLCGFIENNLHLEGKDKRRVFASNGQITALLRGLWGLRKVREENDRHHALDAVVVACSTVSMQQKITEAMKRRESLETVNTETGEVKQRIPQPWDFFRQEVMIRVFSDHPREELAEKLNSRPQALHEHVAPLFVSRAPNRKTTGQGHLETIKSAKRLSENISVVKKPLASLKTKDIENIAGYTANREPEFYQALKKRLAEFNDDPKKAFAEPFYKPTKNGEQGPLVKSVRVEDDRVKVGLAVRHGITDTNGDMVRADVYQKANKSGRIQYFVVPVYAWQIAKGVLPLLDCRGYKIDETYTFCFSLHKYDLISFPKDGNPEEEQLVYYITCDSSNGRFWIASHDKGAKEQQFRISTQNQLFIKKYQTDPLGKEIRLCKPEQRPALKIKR

T3: NarCas9 (Neisseria arctica, UniProt A0A0J0YQ19)
T3 sequence: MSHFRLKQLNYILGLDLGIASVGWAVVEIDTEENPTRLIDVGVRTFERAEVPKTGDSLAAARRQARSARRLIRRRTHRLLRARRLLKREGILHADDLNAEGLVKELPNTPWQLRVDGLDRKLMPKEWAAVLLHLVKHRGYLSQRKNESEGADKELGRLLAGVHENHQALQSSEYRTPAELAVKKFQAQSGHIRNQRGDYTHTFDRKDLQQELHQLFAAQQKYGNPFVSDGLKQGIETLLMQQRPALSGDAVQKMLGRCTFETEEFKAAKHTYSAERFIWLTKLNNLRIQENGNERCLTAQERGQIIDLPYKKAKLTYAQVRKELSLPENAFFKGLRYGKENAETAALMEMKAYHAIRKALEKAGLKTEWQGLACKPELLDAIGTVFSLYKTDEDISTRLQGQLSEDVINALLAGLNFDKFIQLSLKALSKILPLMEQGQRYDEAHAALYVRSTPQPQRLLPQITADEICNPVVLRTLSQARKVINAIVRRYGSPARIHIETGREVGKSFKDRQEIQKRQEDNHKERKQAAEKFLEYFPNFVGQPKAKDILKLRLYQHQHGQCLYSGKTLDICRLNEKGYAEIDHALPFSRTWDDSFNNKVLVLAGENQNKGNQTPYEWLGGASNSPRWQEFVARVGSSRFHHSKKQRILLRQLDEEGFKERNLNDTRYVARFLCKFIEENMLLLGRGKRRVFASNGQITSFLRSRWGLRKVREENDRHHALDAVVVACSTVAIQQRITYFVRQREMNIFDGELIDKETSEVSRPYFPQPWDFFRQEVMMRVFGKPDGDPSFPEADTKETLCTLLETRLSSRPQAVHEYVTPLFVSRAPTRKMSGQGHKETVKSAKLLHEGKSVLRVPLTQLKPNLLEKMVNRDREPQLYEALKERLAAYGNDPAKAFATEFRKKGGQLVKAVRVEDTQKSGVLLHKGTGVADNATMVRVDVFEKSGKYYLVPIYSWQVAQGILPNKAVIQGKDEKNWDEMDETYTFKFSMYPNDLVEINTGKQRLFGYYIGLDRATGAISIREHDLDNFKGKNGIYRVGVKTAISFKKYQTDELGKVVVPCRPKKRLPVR

B1: EMX1 TS10 (mixed)
RNA: GACUGACUGGAUGUGCACAGCAGGUUGUAGCUCCCUUUCUCAUUUCGGAAACGAAAUGAGAACCGUUGCUACAAUAAGGCCGUCUGAAAAGAUGUGCCGCAACGCUCUGCCCCUUAAAGCUUCUGCUUUAAGGGGCAUCGUUUAUUUUUUU
DNA 1: ACTGACTGGATGTGCACAGCAGTGACCG
DNA 2: CGGTCACTGCTGTGCACATCCAGTCAGT
B2: AAVS1 TS4 (mixed)
RNA: GCUGUCCCCUCCACCCCACAGUGGUUGUAGCUCCCUUUCUCAUUUCGGAAACGAAAUGAGAACCGUUGCUACAAUAAGGCCGUCUGAAAAGAUGUGCCGCAACGCUCUGCCCCUUAAAGCUUCUGCUUUAAGGGGCAUCGUUUAUUUUUUU
DNA 1: CTGTCCCCTCCACCCCACAGTGGGGCCACT
DNA 2: AGTGGCCCCACTGTGGGGTGGAGGGGACAG
B3: AAVS1 TS1 (mixed)
RNA: GCAGCAUAGGGUGGCAAAGCCCAGUUGUAGCUCCCUUUCUCAUUUCGGAAACGAAAUGAGAACCGUUGCUACAAUAAGGCCGUCUGAAAAGAUGUGCCGCAACGCUCUGCCCCUUAAAGCUUCUGCUUUAAGGGGCAUCGUUUAUUUUUUU
DNA 1: CAGCATAGGGTGGCAAAGCCCAGGGCCAGG
DNA 2: CCTGGCCCTGGGCTTTGCCACCCTATGCTG
B4: AAVS1 TS2 (mixed)
RNA: B3 RNA with A6G, U7C, G9A, G10A, G14A, A18U, C20G
DNA 1: CAGCGCAAAGTGACAATGGCCAGGGCCAGG
DNA 2: CCTGGCCCTGGCCATTGTCACTTTGCGCTG
B5: AAVS1 TS3 (mixed)
RNA: GUCUGACCUGCAUUCUCUCCCCUGUUGUAGCUCCCUUUCUCAUUUCGGAAACGAAAUGAGAACCGUUGCUACAAUAAGGCCGUCUGAAAAGAUGUGCCGCAACGCUCUGCCCCUUAAAGCUUCUGCUUUAAGGGGCAUCGUUUAUUUUUUU
DNA 1: TCTGACCTGCATTCTCTCCCCTGGGCCTGT
DNA 2: ACAGGCCCAGGGGAGAGAATGCAGGTCAGA
B6: EMX1 TS14 (mixed)
RNA: GCCAAGACGGUGACCAGACUCAAGUUGUAGCUCCCUUUCUCAUUUCGGAAACGAAAUGAGAACCGUUGCUACAAUAAGGCCGUCUGAAAAGAUGUGCCGCAACGCUCUGCCCCUUAAAGCUUCUGCUUUAAGGGGCAUCGUUUAUUUUUUU
DNA 1: CCAAGACGGTGACCAGACTCAAGTTACTGA
DNA 2: TCAGTAACTTGAGTCTGGTCACCGTCTTGG
B7: EMX1 TS9 (mixed)
RNA: GUAAGACGAAUUGUAGAAAGGAGGUUGUAGCUCCCUUUCUCAUUUCGGAAACGAAAUGAGAACCGUUGCUACAAUAAGGCCGUCUGAAAAGAUGUGCCGCAACGCUCUGCCCCUUAAAGCUUCUGCUUUAAGGGGCAUCGUUUAUUUUUUU
DNA 1: TAAGACGAATTGTAGAAAGGAGAGATCAC
DNA 2: GTGATCTCTCCTTTCTACAATTCGTCTTA
B8: AAVS1 TS6 (mixed)
RNA: GUGAACUGGAGUGUGACAGCCUGGUUGUAGCUCCCUUUCUCAUUUCGGAAACGAAAUGAGAACCGUUGCUACAAUAAGGCCGUCUGAAAAGAUGUGCCGCAACGCUCUGCCCCUUAAAGCUUCUGCUUUAAGGGGCAUCGUUUAUUUUUUU
DNA 1: TGAACTGGAGTGTGACAGCCTGGGGCCCAG
DNA 2: CTGGGCCCCAGGCTGTCACACTCCAGTTCA
B9: GRIN2B TS17 (mixed)
RNA: GUGCAGUUAGGGAAUAAGCCCCAGUUGUAGCUCCCUUUCUCAUUUCGGAAACGAAAUGAGAACCGUUGCUACAAUAAGGCCGUCUGAAAAGAUGUGCCGCAACGCUCUGCCCCUUAAAGCUUCUGCUUUAAGGGGCAUCGUUUAUUUUUUU
DNA 1: TGCAGTTAGGGAATAAGCCCCAGTGTCAAG
DNA 2: CTTGACACTGGGGCTTATTCCCTAACTGCA
B10: GRIN2B G5 (mixed)
RNA: GUUUACAAUGAGAGACAAUACUGGUUGUAGCUCCCUUUCUCAUUUCGGAAACGAAAUGAGAACCGUUGCUACAAUAAGGCCGUCUGAAAAGAUGUGCCGCAACGCUCUGCCCCUUAAAGCUUCUGCUUUAAGGGGCAUCGUUUAUUUUUUU
DNA 1: TTTACAATGAGAGACAATACTGGCATCCAA
DNA 2: TTGGATGCCAGTATTGTCTCTCATTGTAAA
B11: GRIN2B G1 (mixed)
RNA: GCCCAUCAAGCUGGGCUCCAAGGGUUGUAGCUCCCUUUCUCAUUUCGGAAACGAAAUGAGAACCGUUGCUACAAUAAGGCCGUCUGAAAAGAUGUGCCGCAACGCUCUGCCCCUUAAAGCUUCUGCUUUAAGGGGCAUCGUUUAUUUUUUU
DNA 1: CCCATCAAGCTGGGCTCCAAGGAGGGCCAA
DNA 2: TTGGCCCTCCTTGGAGCCCAGCTTGATGGG

Biological target: T1, Nsp2-SmuCas9
Experiment: HEK293T cells
Settings: tags: NLS and HA tags, kept

**Q.** Which indel frequency does the source give for B1 here?
**A.** The indel frequency was 5.48 % indels.

**Q.** How did the indel frequency turn out when B2 was run?
**A.** The indel frequency was 6.53 % indels.

**Q.** B3 was tested. Which indel frequency did it give?
**A.** Its indel frequency is 16.7 % indels.

**Q.** For B4, which indel frequency is on record?
**A.** Its indel frequency is 12.4 % indels.

**Q.** How did the indel frequency turn out when B5 was run?
**A.** The indel frequency was 17.9 % indels.

**Q.** B6 was tested. Which indel frequency did it give?
**A.** The indel frequency was 16.5 % indels.

**Q.** How did the indel frequency turn out when B7 was run?
**A.** The indel frequency was 16 % indels.

**Q.** B8 was tested. Which indel frequency did it give?
**A.** Its indel frequency is 6.16 % indels.

**Q.** With B9 as the binder, how does the indel frequency read?
**A.** The indel frequency was 23.2 % indels.

Biological target: T2, Nsp2Cas9
Experiment: HEK293T cells
Settings: tags: NLS and HA tags, kept

**Q.** B10 was tested. Which indel frequency did it give?
**A.** The indel frequency was 18.4 % indels.

**Q.** With B11 as the binder, how does the indel frequency read?
**A.** Its indel frequency is 18.6 % indels.

Biological target: T3, NarCas9
Experiment: HEK293T cells
Settings: tags: NLS and HA tags, kept

**Q.** With B2 as the binder, how does the indel frequency read?
**A.** Its indel frequency is 5.75 % indels.

**Q.** With B3 as the binder, how does the indel frequency read?
**A.** The indel frequency was 10.9 % indels.

**Q.** Which indel frequency does the source give for B5 here?
**A.** The indel frequency was 9.89 % indels.

**Q.** For B9, which indel frequency is on record?
**A.** Its indel frequency is 7.65 % indels.

Reference: publication PMC9433092, “Closely related type II-C Cas9 orthologs recognize diverse PAMs”
